No end group written: not given here. TQ3 = quencher
Biological target: T1, MMP14 in the MDA-MB-231-derived extracellular vesicles (Homo sapiens, UniProt P50281)
T1 construct: in terms of intact MMP14 with a molecular weight of 70 kDa
Test: Digital detection of MDA-MB-231-derived extracellular vesicles through MMP14 activity in wells (microcompartments)
Type: biochemical
Settings: for Expected value λ / Number of positives / Positive ratio: Example 42, EV 2.5 μg/mL, reporter 5 μM, 30° C., TRITC filter; for Expected value λ (×1) / Extracellular vesicle concentration: single reporter; for Expected value λ (×1): at EV concentration x1; for Extracellular vesicle concentration: at x1, from λ (×1) and 50 fL microcompartment
Description: The concentration of the solution is 6.7 μg/mL.
100 μL of the MMP14 detection solution was added to 100 μL of the sample to provide a reaction solution for wells. […] 100 μL of 200 μL of the prepared reaction solution for wells was used in the measurement of MMP14 activity with a 96-well plate.
Next, the wells were filled with the reaction solution by leaving the well array 200 to stand under reduced pressure to degas the space 205. After that, the space 205 was fed with hydrophobic solvents to be sealed. Fluorinated oils AsahiKlin AE-3000 (manufactured by AGC Inc.) and Fomblin Y-25 (manufactured by Solvay S.A.) were used as the hydrophobic solvents. A fluorinated oil Simoa (trademark) SR-X Sealing Oil: 102767 (manufactured by Quanterix Corporation) was further used as another hydrophobic solvent.
Well diameter: 4.25 μm Well depth: 3.25 μm Well capacity: 50 fL Number of wells in array: 239,000 Array range: 3 mm×4 mm
The concentration of the solution is 20 μg/mL. […] The concentration of the solution was set to x1, and 10-fold serial dilution was performed to prepare standard samples with five concentrations.
Next, the wells were filled with the reaction solution by leaving the well array 200 to stand under reduced pressure to degas the space 205. After that, the space 205 was fed with hydrophobic solvents to be sealed.
The concentration of the solution is 20 μg/mL. […] The concentration of the solution was set to x1, and 3-fold serial dilution was performed to prepare standard samples with three concentrations.
The concentration of the solution is 20 μg/mL. […] The concentration of the solution was set to x1, and 2-fold serial dilution was performed to prepare standard samples with four concentrations.
The concentration of the solution is 5 μg/mL.
50 μL of the MMP14 detection solution was added to 50 μL of the sample to provide a reaction solution for wells.
50 μL of each of the MMP14 detection solutions was added to 50 μL of the sample to provide a reaction solution for wells.
The concentration of the solution is 6.7 µg/mL.

TAMRA-GGPLGLAGGK(TQ3) ({TAMRA}-GGPLGLAGGK(TQ3)) [Custom #2T]
Expected value λ (4 hr): 0.1255
Number of positives (4 hr): 3,313
Positive ratio (4 hr): 0.118
Expected value λ (24 hr): 0.1339
Number of positives (24 hr): 3,518
Positive ratio (24 hr): 0.1253
Expected value λ (×1) (reaction 4 hr): 0.5022
Extracellular vesicle concentration (reaction 4 hr): 1.0044e+10 mL⁻¹
Expected value λ (×1) (reaction 24 hr): 0.5354
Extracellular vesicle concentration (reaction 24 hr): 1.0709e+10 mL⁻¹

Reference: patent publication US20250290928A1, “METHOD, KIT AND DEVICE FOR DETECTING EXTRACELLULAR VESICLES” (priority 2022, published 2025)
